In paper PMC10215022:

Key:
[1] = biological target: SARS-CoV-2 Omicron (B.1.1.529) spike protein, plate-bound (MSD V-PLEX) (SARS-CoV-2 Omicron (B.1.1.529)) (UniProt P0DTC2)
[2] = biological target: SARS-CoV-2 Omicron (B.1.1.529) spike protein RBD, His-tagged (SARS-CoV-2 Omicron (B.1.1.529)) (UniProt P0DTC2); experiment: SPR

In the case of “REGEN-COV mAb cocktail (casirivimab and imdevimab at 1:1 molar ratio)”, the IC50 [1] is reported as 13 nM.
With casirivimab (REGN10933) (antibody) the Kd [2] was 1200 nM.
